Measured values taken from patent US20200270125.

Target: ST-pro-factor D-His, P00746
Sequence (P00746 whole entry, looked up): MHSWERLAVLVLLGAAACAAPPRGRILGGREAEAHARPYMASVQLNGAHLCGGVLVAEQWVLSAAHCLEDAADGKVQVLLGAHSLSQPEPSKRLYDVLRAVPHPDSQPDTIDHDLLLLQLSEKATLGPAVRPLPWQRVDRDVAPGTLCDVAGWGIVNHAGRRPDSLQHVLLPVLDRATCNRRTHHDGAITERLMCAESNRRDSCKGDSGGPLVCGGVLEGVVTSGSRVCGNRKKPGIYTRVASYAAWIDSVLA

Row | Protein | cleavage of pro-factor D (Western blot)
1 | recombinant human MASP-1 (CCP1-CCP2-SP) fragment, active (protein) GNECPELQPPVHGKIEPSQAKYFFKDQVLVSCDTGYKVLKDNVEMDTFQIECLKDGTWSNKIPTCKIVDCRAPGELEHGLITFSTRNNLTTYKSEIKYSCQEPYYKMLNNNTGIYTCSAQGVWMNKVLGRSLPTCLPVCGLPKFSRKLMARIFNGRPAQKGTTPWIAMLSHLNGQPFCGGSLLGSSWIVTAAHCLHQSLDPKDPTLRDSDLLSPSDFKIILGKHWRLRSDENEQHLGVKHTTLHPKYDPNTFENDVALVELLESPVLNAFVMPICLPEGPQQEGAMVIVSGWGKQFLQRFPETLMEIEIPIVDHSTCQKAYAPLKKKVTRDMICAGEKEGGKDACSGDSGGPMVTLNRERGQWYLVGTVSWGDDCGKKDRYGVYSYIHHNKDWIQRVTGVRN | only full length MASP-3 (lane 2) and the MASP-1 CCP1-CCP2-SP) fragment (lane 5) cleaved ST-pro-factor D-His6
2 | recombinant full-length human MASP-3 (protein) HTVELNNMFGQIQSPGYPDSYPSDSEVTWNITVPDGFRIKLYFMHFNLESSYLCEYDYVKVETEDQVLATFCGRETTDTEQTPGQEVVLSPGSFMSITFRSDFSNEERFTGFDAHYMAVDVDECKEREDEELSCDHYCHNYIGGYYCSCRFGYILHTDNRTCRVECSDNLFTQRTGVITSPDFPNPYPKSSECLYTIELEEGFMVNLQFEDIFDIEDHPEVPCPYDYIKIKVGPKVLGPFCGEKAPEPISTQSHSVLILFHSDNSGENRGWRLSYRAAGNECPELQPPVHGKIEPSQAKYFFKDQVLVSCDTGYKVLKDNVEMDTFQIECLKDGTWSNKIPTCKIVDCRAPGELEHGLITFSTRNNLTTYKSEIKYSCQEPYYKMLNNNTGIYTCSAQGVWMNKVLGRSLPTCLPECGQPSRSLPSLVKRIIGGRNAEPGLFPWQALIVVEDTSRVPNDKWFGSGALLSASWILTAAHVLRSQRRDTTVIPVSKEHVTVYLGLHDVRDKSGAVNSSAARVVLHPDFNIQNYNHDIALVQLQEPVPLGPHVMPVCLPRLEPEGPAPHMLGLVAGWGISNPNVTVDEIISSGTRTLSDVLQYVKLPVVPHAECKTSYESRSGNYSVTENMFCAGYYEGGKDTCLGDSGGAFVIFDDLSQRWVVQGLVSWGGPEECGSKQVYGVYTKVSNYVDWVWEQMGLPQSVVEPQVER | only full length MASP-3 (lane 2) and the MASP-1 CCP1-CCP2-SP) fragment (lane 5) cleaved ST-pro-factor D-His6
